{"source": "the supplement of paper PMC9112550", "about": "“Optimization of the antimicrobial peptide Bac7 by deep mutational scanning” (BMC Biology, 2022);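 further: peptides expressed intracellularly from a pBAD plasmid library in pooled LB shake-flask culture, induced with 0.3% L-arabinose, DNA abundance read by NGS, three biological replicates, DESeq2 with apeglm shrinkage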", "data": [{"tested_on": "Escherichia coli TOP10", "assay": "shrunken log2 fold change of peptide-encoding DNA abundance (4.5 h post-induction vs induction); higher = less antimicrobial activity (less host growth inhibition)", "settings": "time post-induction: 4.5 h; library: site-saturation at positions 5, 18, 19, 20", "values": [{"sequence": "RRIRERPPRLPRPRPRPEKHPRP", "shrunken log2 fold change": -0.13}, {"sequence": "RRIRRRPPRLPRPRPRPMNEPRP", "shrunken log2 fold change": -0.0251}, {"sequence": "RRIRPRPPRLPRPRPRPGGQPRP", "shrunken log2 fold change": -0.0466}, {"sequence": "RRIRRRPPRLPRPRPRPTYEPRP", "shrunken log2 fold change": -0.21}, {"sequence": "RRIRKRPPRLPRPRPRPHPTPRP", "shrunken log2 fold change": 0.431}, {"sequence": "RRIRWRPPRLPRPRPRPVVEPRP", "shrunken log2 fold change": 0.0281}, {"sequence": "RRIRFRPPRLPRPRPRPHAYPRP", "shrunken log2 fold change": -0.118}, {"sequence": "RRIRDRPPRLPRPRPRPERYPRP", "shrunken log2 fold change": 0.00592}, {"sequence": "RRIRERPPRLPRPRPRPDCTPRP", "shrunken log2 fold change": 0.104}, {"sequence": "RRIRMRPPRLPRPRPRPEPMPRP", "shrunken log2 fold change": 0.386}, {"sequence": "RRIRLRPPRLPRPRPRPMYSPRP", "shrunken log2 fold change": -0.364}, {"sequence": "RRIRQRPPRLPRPRPRPTHNPRP", "shrunken log2 fold change": 0.357}, {"sequence": "RRIRQRPPRLPRPRPRPIDDPRP", "shrunken log2 fold change": -0.112}, {"sequence": "RRIRIRPPRLPRPRPRPYMYPRP", "shrunken log2 fold change": -0.91}, {"sequence": "RRIRMRPPRLPRPRPRPRLQPRP", "shrunken log2 fold change": 0.417}, {"sequence": "RRIRRRPPRLPRPRPRPHWLPRP", "shrunken log2 fold change": 0.28}, {"sequence": "RRIRQRPPRLPRPRPRPQVEPRP", "shrunken log2 fold change": -0.0173}, {"sequence": "RRIRRRPPRLPRPRPRPPDLPRP", "shrunken log2 fold change": 0.66}, {"sequence": "RRIRFRPPRLPRPRPRPWICPRP", "shrunken log2 fold change": -1.05}, {"sequence": "RRIRMRPPRLPRPRPRPTSQPRP", "shrunken log2 fold change": 0.393}, {"sequence": "RRIRKRPPRLPRPRPRPEFKPRP", "shrunken log2 fold change": 0.165}, {"sequence": "RRIRFRPPRLPRPRPRPNFMPRP", "shrunken log2 fold change": -0.0155}, {"sequence": "RRIRVRPPRLPRPRPRPKAKPRP", "shrunken log2 fold change": 0.0989}, {"sequence": "RRIRPRPPRLPRPRPRPKCFPRP", "shrunken log2 fold change": 0.434}, {"sequence": "RRIRCRPPRLPRPRPRPYLLPRP", "shrunken log2 fold change": -0.559}, {"sequence": "RRIRCRPPRLPRPRPRPPFSPRP", "shrunken log2 fold change": 0.236}, {"sequence": "RRIRVRPPRLPRPRPRPCCAPRP", "shrunken log2 fold change": 0.151}, {"sequence": "RRIRHRPPRLPRPRPRPYQAPRP", "shrunken log2 fold change": -0.00987}, {"sequence": "RRIRPRPPRLPRPRPRPFKWPRP", "shrunken log2 fold change": 0.0103}, {"sequence": "RRIRERPPRLPRPRPRPDLMPRP", "shrunken log2 fold change": 0.0435}, {"sequence": "RRIRNRPPRLPRPRPRPPQKPRP", "shrunken log2 fold change": 0.544}, {"sequence": "RRIRQRPPRLPRPRPRPETFPRP", "shrunken log2 fold change": -0.0643}, {"sequence": "RRIRFRPPRLPRPRPRPLTRPRP", "shrunken log2 fold change": -0.0631}, {"sequence": "RRIRHRPPRLPRPRPRPEAVPRP", "shrunken log2 fold change": -0.00144}, {"sequence": "RRIRSRPPRLPRPRPRPRRQPRP", "shrunken log2 fold change": 0.681}, {"sequence": "RRIRRRPPRLPRPRPRPCKGPRP", "shrunken log2 fold change": 0.0306}, {"sequence": "RRIRIRPPRLPRPRPRPKFRPRP", "shrunken log2 fold change": -0.0682}, {"sequence": "RRIRTRPPRLPRPRPRPTYVPRP", "shrunken log2 fold change": -0.163}, {"sequence": "RRIRSRPPRLPRPRPRPYYNPRP", "shrunken log2 fold change": -0.906}, {"sequence": "RRIRFRPPRLPRPRPRPFFTPRP", "shrunken log2 fold change": -0.227}, {"sequence": "RRIRKRPPRLPRPRPRPGLIPRP", "shrunken log2 fold change": 0.13}, {"sequence": "RRIRDRPPRLPRPRPRPFMVPRP", "shrunken log2 fold change": 0.00751}, {"sequence": "RRIRARPPRLPRPRPRPYCFPRP", "shrunken log2 fold change": -0.178}, {"sequence": "RRIRNRPPRLPRPRPRPVMSPRP", "shrunken log2 fold change": 0.0178}, {"sequence": "RRIRHRPPRLPRPRPRPACRPRP", "shrunken log2 fold change": -0.141}, {"sequence": "RRIRWRPPRLPRPRPRPWMAPRP", "shrunken log2 fold change": 0.0321}, {"sequence": "RRIRNRPPRLPRPRPRPHVHPRP", "shrunken log2 fold change": -0.109}, {"sequence": "RRIRARPPRLPRPRPRPAKQPRP", "shrunken log2 fold change": -0.197}, {"sequence": "RRIRMRPPRLPRPRPRPQSVPRP", "shrunken log2 fold change": 0.0409}, {"sequence": "RRIRIRPPRLPRPRPRPLCVPRP", "shrunken log2 fold change": -0.551}, {"sequence": "RRIRLRPPRLPRPRPRPMYHPRP", "shrunken log2 fold change": -0.493}, {"sequence": "RRIRIRPPRLPRPRPRPRMIPRP", "shrunken log2 fold change": 2.5}, {"sequence": "RRIRKRPPRLPRPRPRPSDEPRP", "shrunken log2 fold change": 0.258}, {"sequence": "RRIRHRPPRLPRPRPRPPFYPRP", "shrunken log2 fold change": -0.288}, {"sequence": "RRIRHRPPRLPRPRPRPPSVPRP", "shrunken log2 fold change": 0.241}, {"sequence": "RRIRERPPRLPRPRPRPQPNPRP", "shrunken log2 fold change": -0.084}, {"sequence": "RRIRIRPPRLPRPRPRPLQHPRP", "shrunken log2 fold change": -0.121}, {"sequence": "RRIRPRPPRLPRPRPRPIDYPRP", "shrunken log2 fold change": -0.13}, {"sequence": "RRIRSRPPRLPRPRPRPCRLPRP", "shrunken log2 fold change": -0.271}, {"sequence": "RRIRDRPPRLPRPRPRPPTKPRP", "shrunken log2 fold change": 0.00654}, {"sequence": "RRIRDRPPRLPRPRPRPVNDPRP", "shrunken log2 fold change": -0.163}, {"sequence": "RRIRVRPPRLPRPRPRPCKGPRP", "shrunken log2 fold change": -0.117}, {"sequence": "RRIRDRPPRLPRPRPRPWCHPRP", "shrunken log2 fold change": -0.407}, {"sequence": "RRIRRRPPRLPRPRPRPMIMPRP", "shrunken log2 fold change": -0.323}, {"sequence": "RRIRYRPPRLPRPRPRPQLYPRP", "shrunken log2 fold change": -0.206}, {"sequence": "RRIRVRPPRLPRPRPRPHSFPRP", "shrunken log2 fold change": -0.155}, {"sequence": "RRIRQRPPRLPRPRPRPSNSPRP", "shrunken log2 fold change": -0.294}, {"sequence": "RRIRKRPPRLPRPRPRPRNVPRP", "shrunken log2 fold change": 0.132}, {"sequence": "RRIRKRPPRLPRPRPRPWRIPRP", "shrunken log2 fold change": 0.0387}, {"sequence": "RRIRCRPPRLPRPRPRPVKEPRP", "shrunken log2 fold change": -0.0734}, {"sequence": "RRIRPRPPRLPRPRPRPEIGPRP", "shrunken log2 fold change": 0.0772}, {"sequence": "RRIRLRPPRLPRPRPRPSLQPRP", "shrunken log2 fold change": -0.348}, {"sequence": "RRIRGRPPRLPRPRPRPEPIPRP", "shrunken log2 fold change": 0.296}, {"sequence": "RRIRYRPPRLPRPRPRPLQEPRP", "shrunken log2 fold change": -0.218}, {"sequence": "RRIRRRPPRLPRPRPRPASWPRP", "shrunken log2 fold change": 0.337}, {"sequence": "RRIRRRPPRLPRPRPRPPCDPRP", "shrunken log2 fold change": 1.03}, {"sequence": "RRIRVRPPRLPRPRPRPGQPPRP", "shrunken log2 fold change": 0.0218}, {"sequence": "RRIRPRPPRLPRPRPRPNVTPRP", "shrunken log2 fold change": 0.209}, {"sequence": "RRIRARPPRLPRPRPRPNDDPRP", "shrunken log2 fold change": 0.54}, {"sequence": "RRIRLRPPRLPRPRPRPCWTPRP", "shrunken log2 fold change": -0.252}, {"sequence": "RRIRNRPPRLPRPRPRPRSMPRP", "shrunken log2 fold change": -0.365}, {"sequence": "RRIRMRPPRLPRPRPRPSYTPRP", "shrunken log2 fold change": -0.38}, {"sequence": "RRIRARPPRLPRPRPRPVPIPRP", "shrunken log2 fold change": 0.0735}, {"sequence": "RRIRKRPPRLPRPRPRPPVTPRP", "shrunken log2 fold change": 0.39}, {"sequence": "RRIRKRPPRLPRPRPRPPYRPRP", "shrunken log2 fold change": -0.17}, {"sequence": "RRIRTRPPRLPRPRPRPAQPPRP", "shrunken log2 fold change": 0.00354}, {"sequence": "RRIRKRPPRLPRPRPRPDFGPRP", "shrunken log2 fold change": 0.052}, {"sequence": "RRIRYRPPRLPRPRPRPDMEPRP", "shrunken log2 fold change": -0.0135}, {"sequence": "RRIRIRPPRLPRPRPRPANNPRP", "shrunken log2 fold change": -0.449}, {"sequence": "RRIRERPPRLPRPRPRPQWKPRP", "shrunken log2 fold change": -0.0957}, {"sequence": "RRIRYRPPRLPRPRPRPGDHPRP", "shrunken log2 fold change": 0.0294}]}]}
